Data reported in publication doi:10.1101/154823 (bioRxiv, 2017).

Biological target: T1, GDF8 growth factor dimer (human, UniProt O14793 267-375, disulfide-linked dimer)
T1 sequence (looked up): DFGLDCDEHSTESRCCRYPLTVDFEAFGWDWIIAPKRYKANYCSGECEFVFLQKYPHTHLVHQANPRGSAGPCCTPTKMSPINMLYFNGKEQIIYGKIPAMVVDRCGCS
Test: HDX-MS

binding result: binds
B1: N-prodomain fragment of GDF8 (N-terminal 15 kDa TLD-cleaved prodomain fragment) (domain or fragment, human, UniProt O14793 24-98, looked up)
chain: NENSEQKENVEKEGLCNACTWRQNTKSSRIEAIKIQILSKLRLETAPNISKDVIRQLLPKAPPLRELIDQYDVQR
modifications: predicted N-linked glycan attachment site (printed as Asn-71 in the text, Asn48 in Figure 1A)
